Test [1] concerns the target adaptor protein gp45 of siphophage T1 (phage T1 (ATCC 11303-B1)). Description: cryo-EM structure; head-connector complex of purified mature T1 virions; asymmetric reconstruction 8 Å; local reconstruction of the portal-adaptor complex 3.6 Å (twelvefold symmetry) and of the stopper-terminator-tube complex 3.6 Å (sixfold symmetry).
For test [2], the target named is cement protein (CP) gp48 of siphophage T1 (phage T1 (ATCC 11303-B1)). Description: cryo-EM structure; icosahedral head of purified mature T1 virions (assembled in infected E. coli) in phage buffer (50 mM NaCl, 10 mM MgCl2, 10 mM Tris-HCl, pH 7.6); icosahedral reconstruction 4 Å, local reconstruction of the fivefold region 3.5 Å.
Test [3] deals with cement protein (CP) gp49 of siphophage T1 (phage T1 (ATCC 11303-B1)). Described as above.
Test [4] deals with central fiber protein gp33 of siphophage T1 (phage T1 (ATCC 11303-B1)). Description: cryo-EM structure; tail tip of purified mature T1 virions (laboratory-adapted, no lateral fibers); 6.1 Å, after local refinement 4.3 Å, threefold symmetry imposed.
Test [5] deals with distal tail protein gp37 of siphophage T1 (phage T1 (ATCC 11303-B1)). The description is as above.
Test [6] addresses insertion protein gp34 of siphophage T1 (phage T1 (ATCC 11303-B1)). Described as above.
Test [7] addresses major capsid protein (MCP) gp47 of siphophage T1 (phage T1 (ATCC 11303-B1)). Description: cryo-EM structure; icosahedral head of purified mature T1 virions (assembled in infected E. coli) in phage buffer (50 mM NaCl, 10 mM MgCl2, 10 mM Tris-HCl, pH 7.6); icosahedral reconstruction 4 Å, local reconstruction of the fivefold region 3.5 Å.
In test [8] the target is portal protein gp52 of siphophage T1 (phage T1 (ATCC 11303-B1)). Put plainly: cryo-EM structure; head-connector complex of purified mature T1 virions; asymmetric reconstruction 8 Å; local reconstruction of the portal-adaptor complex 3.6 Å (twelvefold symmetry) and of the stopper-terminator-tube complex 3.6 Å (sixfold symmetry).
Test [9] has as its target stopper protein gp44 of siphophage T1 (phage T1 (ATCC 11303-B1)). The test is described as above.
Test [10] has as its target tail terminator protein gp42 of siphophage T1 (phage T1 (ATCC 11303-B1)). Described as above.
The target in test [11] is tail tube protein (TTP) gp41 of siphophage T1 (phage T1 (ATCC 11303-B1)). Put plainly: cryo-EM structure; tail tube of purified mature T1 virions; 4.1 Å, sixfold symmetry imposed.

As a reminder, the stoichiometry N is a count of units in the complex or per binding partner.

Values joined by “and” are separate entries in the source; they are usually repeats but may differ in a detail not shown here. Equal values may be shown once.

In [1], “adaptor protein gp45 of siphophage T1 (natural protein)” came in with a stoichiometry N of 12.
Substance “cement protein (CP) gp49 of siphophage T1 (natural protein)” came in with a stoichiometry N (gp49 per gp48) in [2] of 2. Further, in test [3], the stoichiometry N is 3.
Substance “central fiber protein gp33 of siphophage T1 (natural protein)” gave a stoichiometry N in test [4] of 3.
“distal tail protein gp37 of siphophage T1 (natural protein)” came in with a stoichiometry N in test [5] of 6.
In test [6], “insertion protein gp34 of siphophage T1 (natural protein)” yielded a stoichiometry N of 3.
Regarding “major capsid protein (MCP) gp47 of siphophage T1 (natural protein)”, in test [7], the stoichiometry N was 5 and 6; the stoichiometry N (copies in the head) amounted to 415.
“portal protein gp52 of siphophage T1 (natural protein)”: the stoichiometry N in test [8] was determined as 12.
For “stopper protein gp44 of siphophage T1 (natural protein)”, in test [9], the stoichiometry N was found to be 6.
In turn, “tail terminator protein gp42 of siphophage T1 (natural protein)” came in with a stoichiometry N in [10] of 6.
Turning to “tail tube protein (TTP) gp41 of siphophage T1 (natural protein)”, the stoichiometry N in [11] turned out to be 6.

The values are drawn from paper PMC11945409.
